System: tau

Substance: Gleevec-resistant abl1 (T3611 form)
- tyrosine phosphorylation of tau in the presence of Gleevec (western blot, ELISA): In the presence of Gleevec, both forms could phosphorylate tau

Reference: patent publication US20070134724
